Test results reported in the DeepSol protein solubility set.

Assay: soluble on expression in E. coli; label from the status in PepcDB or PDB records

Question: Which “soluble on expression in E. coli” value does the source give for “MGTIPASTYYPTHFMRGTQLNVANGNIKKVEDLSSDDFLRCAAESDDVIVNASVIKSIKSTAGSVTIIFETGIEKQLIPLKCQVEHPFFVLGKGWCSCNPRKSGENYGLDCEILQVDDVCIVLTRNEDKITDCAVDIVTAERDLELFSQRAALKEQLVDVYYERVSGRVSAPPERVLVTFSNEHRERRISE” here?
Answer: not soluble

Question: For “MRPEERRRHILELLRQRERISVDELARTLSTSQETIRRDLAALAEQGLVSKFHGGAALPPSGEHENAFQTRMNEHAQEKRAVARYAAGLFGPGDSIFIDTGTTTLLFARELARQSHLTVITNSLLIAGSVGASGNRAFMIGGEYRPESEQNVGALAIEQIARFNAEHAVITVGALNGDGAMDFSIEEAEIARAMIAQARQLTVIADSSKLGRRALFQVFPLSRINRLVVDRKPTGELWEALQQARVEVHEAPLRTPQALEHHHHHH”, which “soluble on expression in E. coli” value is on record?
Answer: not soluble

Question: Which “soluble on expression in E. coli” value does the source give for “MASQPTNAVSAEQLMLSKMQAMQAQVQPPEFIVSANPLDQQALNAPLSFSQAMTNVLDTVNQHQSAASQKMTAVETGQSDDLVGAMVASQKASLSFNALMQVRNKVVASFEDIMKMPV” here?
Answer: not soluble

Question: For “MTMVQVTLEVNGRQVAHEAPPRMHLGDFLRDQARLTGTHLGCEHGVCGACTVLVDGQPVRSCITYAVACEGRQVTTIEGYDGDPVMARLRAAFTKYHALQCGYCTPGMLTTSRDIVLRLPDADEARVRVELSGNLCRCTGYMGIVGAVMSVLRDLREQPDAAVQALRAAAADGRLPAPRGEQPIAFQPFTPSAPAAAQAAPRPAAAASPASGKGNQIVDAFTVPFPAAEVWAFMVDLPAVAACLPGAVIEETDGQRVKGKIAIKFGPMAAAFNGAARLERDEEAMRAVFRGAGQDSLSQSRATGDIAYQVEAVSENETRVKVDLQYALQGPLAQFSRSGLVQDFVRRMIADFGKNVTARLRQPGGEALPQAQFNPVAMFFSVLWMRVKRWFGRGGLEHHHHHH”, which “soluble on expression in E. coli” value is on record?
Answer: not soluble

Question: With “MGHHHHHHSHMAQLMEVLSVTPTQSPENNDLISYNSVWVACQQMPQIPRDNKAAALLMLTKNVDFVKDAHEEMEQAVEECDPYSGLLNDTEENNSDNHNHEDDVLGFPSNQDLYWSEDDQELIIPCLALVRASKACLKKIRMLVAENGKKDQVAQLDDIVDISDEISPSVDDLALSIYPPMCHLTVRINSAKLVSVLKKALEITKASHVTPQPEDSWIPLLINAIDHCMNRIKELTQSELEL” as the sequence, how does the “soluble on expression in E. coli” value read?
Answer: not soluble

Question: With “MSDEAWKQTLICESINDKIGYWEYLAVTDKRRRSRNKAQSSGAENYKKVLEEQQRIYTAGGMGYGPEMYQVISNPMRNQKRVNNIEGSKIFAAMNSGAPRIALDIQYVEEMNKRDSGELGNQMQYTISENFSAKSPFVLDFVNSPSKEFLEQWLSKSVGYYTGNYINQTILPDFSTKGIKEFYGKSANTIYISSNARDVLDGPLTADVIGICVTMGRKREALSAARRANIRAYRLPIHRYVKWKSGPQYLPFPNIMNVLREVYMNGGDWSRALHNNISKRHLVNADDDEQKKMQMLRRRAREEERRELTEAIMSATKG” as the sequence, how does the “soluble on expression in E. coli” value read?
Answer: not soluble

Question: With “GPGSMWVEAYRAGCAEVSADVREDVSSSGATGELIVRGNTFDNFKNRVTDTDVQAILAALRVCPGMSALYLPYNNITSEGGVLLGKALGHQLDSIITLDVQYNSLGAEAGVAIAQGLQRNDSLCHVTLAGNPLGGCCGAALGEALRQNMNLAVLDLFNTDLGMEALVHICRSLEGNKGLSSLNIGRPLLHGVDELESVVNHLSIALQRNSTLEELHMAYFGLVDDCLQTLVLALCGSAVTTLCIKGNKVSQDAGQLLARLLDRRQDFRNLDVSCNRLRDAGAAALAKGVAHHPQLESLGLESCTISERGLVVLVESLKSCATVRRLTLWGNDVTPAVASSLTATFCDLRELDYIDVGVMEQDGQLVAYRA” as the sequence, how does the “soluble on expression in E. coli” value read?
Answer: not soluble

Question: For “MAHHHHHHMLRGTPVRRASLRYRRPYWMMFLKGVDNWKIYTVIQQPDHQRTEMLYQAWLGGLDRPYTRPKCMANQPLWLSKKRHMLRKERLDGPETPLEKYVLEWHKKFHSFQGTERPTPDDLHTALDLVERPLDLSYALQLLGQCRNLNNIRFAKETFLVFLEACLRVGRRDCAEYALEHAEPLGFWFIDEDHRRYLQGEQTWYKLSPLDNLYYPVEENAKLNEGRKPITRLSPATESPGSGTAISDGEPSTDVEGETTVDDEIAQLEAELAALEREGGGK”, which “soluble on expression in E. coli” value is on record?
Answer: not soluble

Question: For “GPGSMLRHAARCFSPRQCYVSPRVMEAEYAVRGLIPARADEIKADLATGHGTYSFESLVYCNIGNPQSVGQMPLTFYRQVMVLVDAPFLLEDAEIVARLPEDAVARARRYLSEIGTGTGAYTESFGFRFARAAVAAHINELDHGVSPAATVNDICLTDGASMGAKLFLQLLVGGASDAVMIPVPQYPLYSAQIALLGGVKVPYGLHESEGWVMKLSDLVAAYERCVTESGATPRLFVCINPGNPTGNVLERCVMEDVVRFCHERGMLLLADEVYQENVYDTRRRFLSFREVVLGMPEPYCSETMLVSLHSTSKGVIGECGRRGGYFCMTNLPAALRQQVVKLCSINLCANVNGQLMTALMCSPPREGEASYALHRREYDEIFTGMKERAELLARELGAVRGLSCQPVEGAMYAFPRIVLPERYAQRNEELNAKEGRQLALDARWALELLESSGIVVVPGSGFGQEPGTLHFRITILPPLEQIDRMVRAIREFQDRIYEQYA”, which “soluble on expression in E. coli” value is on record?
Answer: soluble

Question: Which “soluble on expression in E. coli” value does the source give for “MSAFYQIFHDTHYKYDTPVSLAQQLAHLWPRSSPWQRCTEQALEIFPAPTTRRDELDVFGNPLTRLAFERPHDELQVNARLRIEVLERPQLDFNLSPEWEVTRNALTYSAKPMTEDILEACRYRFESPYVHLKRSFVEFSQDCFPVGRPLLLGVQALMEKIFDEFTFDEEATQVATPLVEVLESRRGVCQDFAHLMLACLRSRGLAARYVSGYLLTQPPPGQPRLIGADASHAWVSVFCPASGWVDFDPTNNVQPALEHISLAWGRDFSDVSPLRGVILGGGSHDPDVRVTVMPVSA” here?
Answer: not soluble

Question: Which “soluble on expression in E. coli” value does the source give for “MEELVGLLRIRVKRGINLAQRDTLSSDPFVVITMGSQKLKTRVVENNCNPEWNEELTLALRHPDEPVNLIVYDKDTFTSHDKMGDAKIDIKPFLEVHKMGLQELPDGTEIKRVVPNRENCLAEASSIVSNNGKIVQNMILLLRNVECGEVEIQLEWIDIPGSRGL” here?
Answer: not soluble

Question: For “MIIEFEEKLLDLIDAQVVNASSDELFAGGYLRGHISLSAAQCEEEGITELDVLKQRIEQSLEAARSELSPADRAIVAELWQQLAAQA”, which “soluble on expression in E. coli” value is on record?
Answer: not soluble

Question: With “MTNNAVLQLRAERLARATRPFLARGNRVRRCQRCLLPLKSCLCDTLTPSQAKSRFCLVMFDTEPMKPSNTGRLIADILPDTAAFQWSRTEPPQALLELVQHPDYQPIVVFPASYAGEAREVISTPPAGKPPLFIMLDGTWPEARKMFRKCPYLDHLPVISVDLSRLSAYRLREIHAEGQYCTAEVAIALLDLAGDTEAATSLGEHFTRFKTRYLAGKTQHPGNVTALEHHHHHH” as the sequence, how does the “soluble on expression in E. coli” value read?
Answer: not soluble

Question: For “MGSSHHHHHHSSGRENLYFQGMKVVFLICNPAAGGGRAGKIWNRVEDLLKKHGIDHKFAFTERPGHAMEISKKAFKEGYRRIAAFGGDGTVNEMVNGIFLNGYDLREVVFGWIPFGSGKDWARTIGVPLEIEEAIKMLKDGKEFVQDLGVGEYEKASGEIEKRAFVNVAGLFFDGFVTYRTNLLKRKNRVSYFSRIFSSIIEYDPPTARIQIDEKVWEKRVFSMNVGICKYNGGGMNQLPHAVPDDGLLAVTVINDIGKLRILANLHRVFNGKLLEHPGVEGYQAKKVVVEFQRDEPVEFDGESFWAKKIFFSIIPGVIRVLVKK”, which “soluble on expression in E. coli” value is on record?
Answer: soluble

Question: Which “soluble on expression in E. coli” value does the source give for “MKQGKFSVFLILLLMLTLVVAPKGKAEAASSGWQPVSGISGCKIRVITDAYTYTKSATSIDAYAETNGKCGKLNYKSFGVSIVEGGDIGPQYSGYFSSRTPTKKFYFSKLPKPTGTPWAVGLSVYKGKAKGAAFVYINPQKRLEHHHHHH” here?
Answer: not soluble

Question: For “MAGDPMSESLAQYQEDLRRFSDELIRIQTPIKILDAIKWPREMEERFLSSKGTVLPAIKQDFYQNIALPFDPAKTQAELLSLKNDIHRRLGKKDKLGKLLVANVDQYRLVVDMLGHRGTPTFGKLSQELYGSASHRLHGDRHTLRQLGDRLSYIFSLPAARHMNKHHPKIISAPEAVNVLSQRLEKYFHSDDMRVRLSDGIVSDAAVGGDTVKLNSKAMFSESDLNVYEVHEGWVHVGTTLNGRAQPHATWLSVGSPRVAATQEGLAVLLEMLTLSSNPGRARRISDRVAAVDMAENGADFIEVFNYFRELNLSAKDSYRVTQRVFRGGMVEGGSFFTKDISYVRGYVENINFIRSAITSGLPELIPMLFLGKLAIEDIPVLYQACQEGILTPPKYLPPMFDNFSGLYAWFGFASGLAGIDLKGVQRHFTRLFKDVPSIDPSLELLDDTEFDNNSDAAALEHHHHHH”, which “soluble on expression in E. coli” value is on record?
Answer: soluble

Question: For “MGSDKIHHHHHHMLEQKINVDNTALFEQLWGWTNELREKIDARFELHSDPSTENFKKYSALIGEAHGSVNTFSGPEIDWLVHSWLREPKSGFCNMHLTVWLKSQIHVPHLAIVFATVPELFFFIDYVSRTDLFTDLDYLDRYYEPVNQTYLAFLKDSRFQQYISKTLYIRQVQSHTSLCYTSPVTEETLARIHTLAHEMIDRWLGWVDEAEPVAESERDALSERDLFVRRTVAERDPDNQIAVRLFGAEMTDKLVRSLWGGDRIL”, which “soluble on expression in E. coli” value is on record?
Answer: not soluble

Question: Which “soluble on expression in E. coli” value does the source give for “SETQEGVSKQSIRERIWDYMESHDIADFPRPVHHRIPNFKGAAQAAGHLPHLQAFHVARTIKVNPDAPQRNARFLVLESKKTLLVPTPRLRTGLFNKITPPPGATKDILRKCATSQGVRNFSVPVGLDSSVLVDLVVVGSVAVSEKGKLETGCLDVPEGYPGHSPLACVHAESLTSAPVPLTLQAFCCSVSPHGRLSVIGMGGIESLSHLNQHSVERPLPGLCGGPLMVVVIPH” here?
Answer: not soluble

Question: For “MGQRQAKQHMQAGVKLYHQRHYAQAINKWRQSLNRLNNAEDRFITLGYLAQALCDQGEYEGMLSYALSQMQLATDQNDSAMKCEAFLNLAKAYERLADFTKALQYGKASLEHPSMDPRTPGYAHLTIALAHLGMSQFQQCLESFESAMNVANETSDRLLELQICVGLGSLFTLLRDITKALIFLRNALAIVQSVTVDDVHAKYRCLILYHLSVALRMKGSLVDAKEACDEASQLAVEMGNRAIHARCMCSLADIYRELGESEAKETITKSWARYEDAYRVMRGANDKMGEVLVLSSMAKSASESRSHYTGQCECQAIQLNKKCIEIANQIGCKHVVLKCHLRLAELYSQLNDDDSEETARRAASRLTQEMQLFCNFCGQRYGLKDESLQALRCSHIFHEKCLHTYLLQRTDQTCPKCRCRAVLSDNISIRSSIASTIDVQSPSTSFAPPGGVATPLVSAAAELGDITPQATLTRRSQQDKILRGAEKDIDRVDRSLARLKSQQSAAANACSAVAVPSPEVPSTTASCASEPILTASTTSQSHTHSNANHKPPPPPRKPCCSQAALPPSSIVALPPAMPLAEDGPLVITHTPTVTDV”, which “soluble on expression in E. coli” value is on record?
Answer: not soluble

Question: For “MSLQEVKKTYFVSKPGTLISMMTEEEANQVTHLTLTGKINAVDFRHLRDEFKNLQVLDIANASISMYSGKEGTYPDKFYIYMPNFVPAYAFCKMENGTAKGKSTLKKIILSEKIKNIEDAAFMGCENLNICQIKKKTPPNLLPEALADSITAIFVPLGASDEYRLKNRWDNFAFIEGEPLEAKIEVGALSTLENEIQKAGLQPKEINFLTIEGKLDAADFKLIRDYMPNLVAVDIEKTNATAIPDFTFSQKKYLLRIRLPHGLKSIGQRAFSNCGRLCGTVELPESITAIEYGAFMGCDRLRYVVAHGDKITTIGDNLFGEGKNKLIYKREGHHHHHH”, which “soluble on expression in E. coli” value is on record?
Answer: soluble

Question: With “MIIFSGGTGTPKLLDGLKEILPEEELTVVVNTAEDLWVSGNLISPDLDTVLYLFSDQIDRKRWWGIENDTFGTYERMKELGIEEGLKLGDRDRATHIIRSNIIRDGASLTDSTVKLSSLFGIKANILPMSDDPVSTYIETAEGIMHFQDFWIGKRGEPDVRGVDIRGVSEASISPKVLEAFEKEENILIGPSNPITSIGPIISLPGMRELLKKKKVVAVSPIIGNAPVSGPAGKLMPACGIEVSSMGVAEYYQDFLDVFVFDERDRADEFAFERLGCHASRADTLMTSTEKSKELAEIVVQAFLEHHHHHH” as the sequence, how does the “soluble on expression in E. coli” value read?
Answer: soluble
